Residue numbers refer to the chain shown, from its start.
B1: wild type human cardiotrophin-1 (CT-1) polypeptide, FTV370 (ligand)
chain: SRREGSLEDPQTDSSVSLLPHLEAKIRQTHSLAHLLTKYAEQLLQEYVQLQGDPFGLPSFSPPRLPVAGLSAPAPSHAGLPVHERLRLDAAALAALPPLLDAVCRRQAELNPRAPRLLRRLEDAARQARALGAAVEALLAALGAANRGPRAEPPAATASAASATGVFPAKVLGLRVCGLYREWLSRTEGDLGQLLPGGSA
B2: FTV381, human CT-1 variant retaining cysteine 105 with cysteine 178 replaced (ligand)
chain: MSRREGSLEDPQTDSSVSLLPHLEAKIRQTHSLAHLLTKYAEQLLQEYVQLQGDPFGLPSFSPPRLPVAGLSAPAPSHAGLPVHERLRLDAAALAALPPLLDAVCRRQAELNPRAPRLLRRLEDAARQARALGAAVEALLAALGAANRGPRAEPPAATASAASATGVFPAKVLGLRVSGLYREWLSRTEGDLGQLLPGGSA
B3: FTV380, human CT-1 variant with cysteine 105 mutated to serine (ligand)
chain: B2 chain with C105S, S178C
B4: FTV384, human CT-1 variant with both natural cysteines replaced with serines and an additional cysteine at its carboxyl terminus (ligand)
chain: MSRREGSLEDPQTDSSVSLLPHLEAKIRQTHSLAHLLTKYAEQLLQEYVQLQGDPFGLPSFSPPRLPVAGLSAPAPSHAGLPVHERLRLDAAALAALPPLLDAVSRRQAELNPRAPRLLRRLEDAARQARALGAAVEALLAALGAANRGPRAEPPAATASAASATGVFPAKVLGLRVSGLYREWLSRTEGDLGQLLPGGSAC

What was measured:
[1] = target: T1, gp130 (on C2C12 myoblasts) (UniProt Q00560 23-917, limits assumed); test: cell-based or functional assay
T1 sequence (looked up): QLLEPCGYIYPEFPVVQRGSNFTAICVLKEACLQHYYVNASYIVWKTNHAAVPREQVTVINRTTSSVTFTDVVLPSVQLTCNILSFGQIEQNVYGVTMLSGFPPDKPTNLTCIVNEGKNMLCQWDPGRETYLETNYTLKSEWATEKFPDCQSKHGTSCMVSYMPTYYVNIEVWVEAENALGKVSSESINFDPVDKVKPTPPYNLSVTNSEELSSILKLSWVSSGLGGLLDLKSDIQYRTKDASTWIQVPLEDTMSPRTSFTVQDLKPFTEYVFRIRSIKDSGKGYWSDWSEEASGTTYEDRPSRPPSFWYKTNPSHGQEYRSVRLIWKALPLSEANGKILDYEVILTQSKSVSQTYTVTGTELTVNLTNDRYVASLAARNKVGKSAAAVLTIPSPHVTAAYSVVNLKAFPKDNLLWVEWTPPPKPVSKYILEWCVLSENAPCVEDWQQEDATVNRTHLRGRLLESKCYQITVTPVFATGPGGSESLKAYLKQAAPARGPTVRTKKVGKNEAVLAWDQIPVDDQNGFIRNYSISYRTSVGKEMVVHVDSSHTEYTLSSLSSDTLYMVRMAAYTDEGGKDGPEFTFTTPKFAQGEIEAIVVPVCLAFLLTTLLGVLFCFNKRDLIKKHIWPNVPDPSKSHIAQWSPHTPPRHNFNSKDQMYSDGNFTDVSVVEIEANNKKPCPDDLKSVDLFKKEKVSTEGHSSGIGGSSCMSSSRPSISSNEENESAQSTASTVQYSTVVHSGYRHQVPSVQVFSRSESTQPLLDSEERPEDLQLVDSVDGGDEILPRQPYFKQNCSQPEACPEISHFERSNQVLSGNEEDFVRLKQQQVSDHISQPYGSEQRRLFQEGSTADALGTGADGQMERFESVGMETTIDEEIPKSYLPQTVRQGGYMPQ

[2] = target: gp130 (on C2C12 myoblasts) (UniProt Q00560); test: cell-based or functional assay

| Binder | EC50, Stat3 phosphorylation in C2C12 cells (western blot densitometry) [1] | EC50, Stat3 phosphorylation in C2C12 cells (western blot densitometry) [2] | mean EC50, Stat3 phosphorylation in C2C12 cells [2] |
| --- | --- | --- | --- |
| B1 | ~1 ng/mL | – | – |
| B2 | – | 2 to 5 ng/mL | 2.5 ng/mL |
| B3 | – | 0.35 ng/mL | – |
| B4 | – | 4 ng/mL | 5 ng/mL |
